± gives the uncertainty stated by the source.
Assay: self-splicing fitness, log relative to wild type (ln ratio); higher = more splicing; Tetrahymena group I intron in knt gene, E. coli kanamycin selection, DiMSum; sequences stand for … in CUCUCU…GGAGGGAAAAGUUAUCAGGCAUGCACCUGGUAGCUAGUCUUUAAACCAAUAGAUUGCAUCGGUUUAAAAGGCAAGACCGUCAAAUUGCGGGAAAGGGGUCAACAGCCGUUCAGUACCAAGUCUCAGGGGAAACUUUGAGAUGGCCUUGCAAAGGGUAUGGUAAUAAGCUGACGGACAUGGUCCUAACCACGCAGCCAAGUCCUAAGUCAACAGAUCUUCUGUUGAUAUGGAUGCAGUUCACAGACUAAAUGUCGGUCGGGGAAGAUGUAUUCUUCUCAUAAGAUAUAGUCGGACCUCUCCUUAAUGGGAGCUAGCGGAUGAAGUGAUGCAACACUGGAGCCGCUGGGAACUAAUUUGUAUGCGAAAGUAUAUUGAUUAGUUUUGGAGUACUCGUGGUCG
How it was run: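 Six replicate transformations of E. coli BL21(DE3) with a pET-22b(+) library were grown overnight at 37°C or 30°C. The library randomised all eight P1ex-region intron nucleotides, the intron lying in the knt kanamycin-resistance gene, and plates were LB agar with or without 25 μg/mL kanamycin plus 100 μg/mL carbenicillin, 50 μM IPTG and 0.2% rhamnose. Pooled colonies were amplicon-sequenced on an Illumina HiSeq 2500, and fitness is the DiMSum error-weighted combination of wild-type-normalised replicate fold changes, kanamycin versus none.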

Sequence | self-splicing fitness (ln) (30 °C) | self-splicing fitness (ln) (37 °C)
AGGCAGCAAUAUUACGACAA | -1.26 ± 0.14 | -0.976 ± 0.13
UUCGAGCAAUAUUACGUUCG | -3.75 ± 0.24 | -2.32 ± 0.27
GAGUAGCAAUAUUACGCUCA | -0.591 ± 0.15 | -0.761 ± 0.15
GGAAAGCAAUAUUACGCCGA | -0.608 ± 0.34 | -0.354 ± 0.24
CCUCAGCAAUAUUACGGUUU | -3.37 ± 0.13 | -2.73 ± 0.16
GAACAGCAAUAUUACGGGGC | -3.05 ± 0.15 | -3.3 ± 0.21
CACUAGCAAUAUUACGGCUA | -3.46 ± 0.47 | -2.1 ± 0.32
GACCAGCAAUAUUACGAUUU | 0.0538 ± 0.046 | 0.446 ± 0.065
CGCAAGCAAUAUUACGUCAG | -0.378 ± 0.053 | 0.1 ± 0.069
AACUAGCAAUAUUACGCUCC | -1.39 ± 0.15 | -0.732 ± 0.19
CGAGAGCAAUAUUACGAUCU | -2.45 ± 0.42 | –
AUUUAGCAAUAUUACGAAGC | -2.88 ± 0.23 | -3.6 ± 0.46
CCGAAGCAAUAUUACGACUC | -3.36 ± 0.32 | –
GGGUAGCAAUAUUACGGGCU | -0.35 ± 0.081 | 0.282 ± 0.13
AGUGAGCAAUAUUACGAGAU | -3.9 ± 0.23 | -1.49 ± 0.19
AGAGAGCAAUAUUACGUUCU | -3.19 ± 0.41 | -2.26 ± 0.45
UUCUAGCAAUAUUACGAAGA | -1.99 ± 0.19 | -1.61 ± 0.21
CGCUAGCAAUAUUACGAAGG | -1.06 ± 0.098 | -0.735 ± 0.13
AUCGAGCAAUAUUACGAAGG | -2.56 ± 0.23 | -2.28 ± 0.31
GGGGAGCAAUAUUACGUGUC | -3.68 ± 0.33 | -2.19 ± 0.18
CCAGAGCAAUAUUACGGUUA | -2.7 ± 0.18 | -2.01 ± 0.25
CAAUAGCAAUAUUACGCUGC | -3.49 ± 0.28 | -1.92 ± 0.33
GUAAAGCAAUAUUACGCGCC | -2.22 ± 0.2 | -1.03 ± 0.23
AACCAGCAAUAUUACGGAGG | -1.36 ± 0.076 | -0.444 ± 0.12
CCGUAGCAAUAUUACGCGUC | -3.42 ± 0.15 | -1.78 ± 0.15

Sequence | self-splicing fitness (ln) (30 °C) | self-splicing fitness (ln) (37 °C)
GCAUAGCAAUAUUACGUACA | -1.56 ± 0.15 | -0.421 ± 0.13
UCCGAGCAAUAUUACGUCGU | -2.21 ± 0.16 | -1.53 ± 0.18
ACAGAGCAAUAUUACGCCCG | -3.2 ± 0.21 | -1.63 ± 0.18
UUCUAGCAAUAUUACGUCUG | -2.22 ± 0.12 | -2.49 ± 0.21
GAACAGCAAUAUUACGGCAA | -0.669 ± 0.094 | -0.372 ± 0.091
GGCUAGCAAUAUUACGCAAA | -1.68 ± 0.18 | -0.628 ± 0.16
UGCCAGCAAUAUUACGCCAU | -3.3 ± 0.28 | -2.48 ± 0.26
CUCUAGCAAUAUUACGUGUU | -3.44 ± 0.15 | -2.39 ± 0.12
CACCAGCAAUAUUACGGUCC | -0.606 ± 0.074 | -0.037 ± 0.11
GAGAAGCAAUAUUACGGUAC | -2.92 ± 0.23 | -1.54 ± 0.21
UGUGAGCAAUAUUACGCUUU | -3.5 ± 0.33 | -3.83 ± 0.33
UAGAAGCAAUAUUACGCCCU | -0.743 ± 0.19 | 0.316 ± 0.22
UCAUAGCAAUAUUACGGGUA | -1.8 ± 0.094 | -1.53 ± 0.079
UCCGAGCAAUAUUACGGUCA | -0.946 ± 0.067 | -0.671 ± 0.057
CCUGAGCAAUAUUACGCUAG | -3.02 ± 0.19 | -1.27 ± 0.17
GGGCAGCAAUAUUACGUUAC | -1.84 ± 0.16 | -0.903 ± 0.23
UGAAAGCAAUAUUACGAAGA | -2.23 ± 0.3 | -0.283 ± 0.19
AUCCAGCAAUAUUACGAGUC | -2.87 ± 0.17 | -2.01 ± 0.21
AGCCAGCAAUAUUACGGGUC | -3.28 ± 0.18 | -2.13 ± 0.2
GAGGAGCAAUAUUACGGUAC | – | -2.14 ± 0.26
AGCCAGCAAUAUUACGCGGU | -2.93 ± 0.28 | -2.29 ± 0.33
CAGAAGCAAUAUUACGAUUU | -2.06 ± 0.096 | -1.16 ± 0.11
GUGGAGCAAUAUUACGAUGG | – | -2.9 ± 0.38
ACAGAGCAAUAUUACGCUUU | -2.28 ± 0.26 | -2.45 ± 0.23
GUGGAGCAAUAUUACGAGCG | -3.52 ± 0.38 | -1.62 ± 0.31

Sequence | self-splicing fitness (ln) (30 °C) | self-splicing fitness (ln) (37 °C)
AAUUAGCAAUAUUACGAGCC | – | -1.57 ± 0.47
AGGAAGCAAUAUUACGAUCC | -0.54 ± 0.16 | -0.331 ± 0.17
UGUUAGCAAUAUUACGGCGA | 0.174 ± 0.14 | -0.431 ± 0.15
CAGUAGCAAUAUUACGGUAG | -1.21 ± 0.067 | 0.0261 ± 0.098
AUGGAGCAAUAUUACGUCGA | -3.25 ± 0.3 | -3.1 ± 0.43
AUCGAGCAAUAUUACGAGGG | -1.4 ± 0.17 | -2.1 ± 0.46
UGGCAGCAAUAUUACGGUAA | -0.651 ± 0.089 | 0.0797 ± 0.093
GGCAAGCAAUAUUACGUUGC | -3.67 ± 0.37 | -2.42 ± 0.39
UAGAAGCAAUAUUACGAUAU | -3.44 ± 0.25 | -2.19 ± 0.19
UAUGAGCAAUAUUACGCUCC | -1.47 ± 0.31 | –
UUCUAGCAAUAUUACGUGCG | -1.98 ± 0.14 | -2.14 ± 0.13
CACGAGCAAUAUUACGACGA | -3.66 ± 0.48 | -2.24 ± 0.26
UGAGAGCAAUAUUACGUCCU | -3.05 ± 0.24 | -2.57 ± 0.49
UCGCAGCAAUAUUACGGUGC | -4.1 ± 0.24 | -1.62 ± 0.15
AGCUAGCAAUAUUACGGCGU | 0.111 ± 0.11 | -0.724 ± 0.13
CACUAGCAAUAUUACGCGUC | -1.84 ± 0.1 | -2.75 ± 0.21
ACUGAGCAAUAUUACGGGUC | -4.21 ± 0.27 | -3.02 ± 0.33
CACUAGCAAUAUUACGCUUA | -2.65 ± 0.21 | -1.2 ± 0.13
GUCGAGCAAUAUUACGAGCU | -2 ± 0.42 | –
UAGUAGCAAUAUUACGGGCC | -2.91 ± 0.23 | -1.62 ± 0.22
GAUCAGCAAUAUUACGGCAA | -0.689 ± 0.084 | -1.24 ± 0.087
GCAUAGCAAUAUUACGUUAG | -2.48 ± 0.12 | -1.96 ± 0.15
GAUAAGCAAUAUUACGACGU | -0.187 ± 0.076 | 0.339 ± 0.091
GGGAAGCAAUAUUACGUAGA | -1.36 ± 0.15 | -0.824 ± 0.19
CCAUAGCAAUAUUACGGCGC | -1.25 ± 0.19 | -2.07 ± 0.3

Sequence | self-splicing fitness (ln) (30 °C) | self-splicing fitness (ln) (37 °C)
AGGUAGCAAUAUUACGAUCU | -0.913 ± 0.016 | -0.426 ± 0.034
CUUAAGCAAUAUUACGAGUU | – | -2.42 ± 0.36
UUCAAGCAAUAUUACGCCCA | -0.837 ± 0.24 | 0.3 ± 0.21
GGGUAGCAAUAUUACGAAUC | 0.0354 ± 0.3 | -0.646 ± 0.36
AGAGAGCAAUAUUACGAGAU | -2.92 ± 0.37 | -1.38 ± 0.27
GCAUAGCAAUAUUACGCUGA | -2.69 ± 0.24 | -1.06 ± 0.14
UCUGAGCAAUAUUACGAUAA | – | -2.05 ± 0.43
AAGAAGCAAUAUUACGUAGC | -3.08 ± 0.25 | -2.32 ± 0.31
CCCAAGCAAUAUUACGCAAA | -3.35 ± 0.13 | -2.71 ± 0.14
AUGGAGCAAUAUUACGUCGU | -2.38 ± 0.15 | -1.45 ± 0.18
GGUGAGCAAUAUUACGGAAC | -1.27 ± 0.21 | -0.837 ± 0.24
GCGUAGCAAUAUUACGCGAU | -2.83 ± 0.26 | -2.31 ± 0.26
UGAAAGCAAUAUUACGGAAC | -2.58 ± 0.22 | -0.53 ± 0.25
UCUAAGCAAUAUUACGUAUG | -1.95 ± 0.089 | -1.6 ± 0.11
CACCAGCAAUAUUACGUCAG | -0.342 ± 0.051 | 0.0517 ± 0.067
CCUCAGCAAUAUUACGCCCA | -3.18 ± 0.22 | -3.5 ± 0.39
GAAGAGCAAUAUUACGUGCC | -3.3 ± 0.19 | -1.81 ± 0.23
AAUAAGCAAUAUUACGGAUU | -1.34 ± 0.096 | -0.185 ± 0.12
CAGGAGCAAUAUUACGAAGU | -4.19 ± 0.28 | -2.39 ± 0.37
AGUUAGCAAUAUUACGCGUC | -3.11 ± 0.48 | -0.621 ± 0.33
ACGGAGCAAUAUUACGUGCA | – | -1.4 ± 0.22
UGUCAGCAAUAUUACGAUCG | 0.238 ± 0.098 | 0.647 ± 0.12
CUAAAGCAAUAUUACGACCU | -4.28 ± 0.46 | -1.97 ± 0.22

From the supplement of paper PMC7877785
